The source of these data is patent US11578136B2, “Compositions and methods for treating cancer” (INNATE PHARMA, priority 2017, dated 2023).

Series [1] deals with T1, human CD39-expressing CHO cells (CHO-huCD39) (Homo sapiens, UniProt P49961).
T1 construct: expressed in transfected cells; host or cells: CHO cells
T1 sequence (P49961 1-510): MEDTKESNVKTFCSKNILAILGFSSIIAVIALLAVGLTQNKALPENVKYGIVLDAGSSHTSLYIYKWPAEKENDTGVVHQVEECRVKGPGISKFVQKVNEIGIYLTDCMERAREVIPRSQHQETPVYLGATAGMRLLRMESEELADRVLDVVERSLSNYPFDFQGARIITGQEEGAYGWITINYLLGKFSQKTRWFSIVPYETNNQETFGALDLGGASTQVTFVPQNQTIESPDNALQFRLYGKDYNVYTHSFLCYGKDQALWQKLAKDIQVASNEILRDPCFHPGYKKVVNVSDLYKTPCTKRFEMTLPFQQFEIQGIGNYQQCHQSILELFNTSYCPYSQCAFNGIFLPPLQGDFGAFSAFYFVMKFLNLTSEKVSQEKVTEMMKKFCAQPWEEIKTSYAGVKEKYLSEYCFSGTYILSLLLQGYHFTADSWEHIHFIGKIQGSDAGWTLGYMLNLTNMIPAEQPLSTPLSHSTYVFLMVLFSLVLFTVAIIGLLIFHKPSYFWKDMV
Briefly: Inhibition of the enzymatic activity of cellular CD39 in CHO-huCD39. The class given is cell-based. To be noted: result in words. The protocol:
The inhibition of the CD39 enzymatic activity in CD39-expressing cells by antibodies was evaluated using Cell Titer Glo™ (Promega, reference G7571) that allows assessment of ATP hydrolysis through use of a reagent that generates a luminescent signal proportional to the amount of ATP present. The assay was thus designed to permit assessment of the inhibition of ATP hydrolyzed by CD39 in the cell culture supernatant. Briefly, 5×10^4 Ramos human lymphoma cells, 5×10^3 human CD39-, cynomolgus CD39- and mouse CD39-expressing CHO cells, were incubated 1 hour at 37° C. with anti-CD39 antibodies from 30 μg/ml to […]. Cells were then incubated with 20 μM ATP for 1 additional hour at 37° C. Plates were centrifuged for 2 min at 400 g and 50 μl cell supernatant are transferred in a luminescence microplate (white wells). 50 μl CellTiter-Glo® Reagent (CTG) was added to the supernatant and emitted light was quantified after a 5 min incubation in the dark using a Enspire™ luminometer. Anti-CD39 antibody efficacy was determined by comparing emitted light in presence of antibody with ATP alone (maximal light emission) and ATP together with cells (minimal light emission).
The inhibition by antibody I-394 of the ATPase activity of CD39 in CD39-expressing cells was evaluated using the assay used for inhibition of the enzymatic activity of cellular CD39 as described above (Methods).

Series [2] deals with T2, Human CD39-L4 (NTPDase5, ENTPD5) (Homo sapiens, UniProt O75356).
T2 sequence (O75356 25-428): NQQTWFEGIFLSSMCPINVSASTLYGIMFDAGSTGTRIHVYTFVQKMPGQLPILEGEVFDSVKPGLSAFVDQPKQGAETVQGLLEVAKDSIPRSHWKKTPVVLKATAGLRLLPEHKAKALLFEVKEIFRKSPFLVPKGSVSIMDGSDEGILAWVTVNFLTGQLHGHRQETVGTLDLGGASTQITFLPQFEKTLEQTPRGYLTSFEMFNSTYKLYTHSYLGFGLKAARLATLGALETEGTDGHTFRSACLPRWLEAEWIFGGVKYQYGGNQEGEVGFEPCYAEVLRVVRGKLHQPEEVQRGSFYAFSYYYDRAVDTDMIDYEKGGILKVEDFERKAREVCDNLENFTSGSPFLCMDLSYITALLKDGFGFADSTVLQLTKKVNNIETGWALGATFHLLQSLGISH
The series can be described thus: ELISA titration on CD39-L4. The class given is binding. To be noted: result in words. The protocol: Antibody I-394 was tested for binding to recombinant human CD39 isoforms (Rec-huCD39 isoforms) having amino acid sequences shown below were coated in 96-well plate in PBS 1× at 500 ng/ml or 1 μg/ml at 4° C. overnight. Wells were washed in TBS Tween 20, and further saturated 2H at RT in TBS Blocking buffer. Dose range concentration of primary antibody was incubated in TBS blocking buffer for 2 h at RT. Wells were washed in TBS Tween 20. […] Optical density was measured on Enspire™ at OD=450.

Series [3] concerns monocyte-derived DC (moDC). Briefly: Activation of dendritic cells in presence of ATP (flow cytometry). The class given is cell-based, human. To be noted: ATP at 0.125 mM, 0.25 mM or 0.5 mM; I-394 at 10 μg/ml. The protocol:
While ATP has pro-inflammatory, CD39-mediated catabolism of ATP is believed to be able to impair dendritic cell (DC) activation, in turn altering a broader adaptive immune response against tumor antigen. In order to evaluate whether CD39 blockade using anti-CD39 antibodies could overcome CD39-mediated alteration of dendritic cell (DC) activation in the presence of ATP, we incubated monocyte-derived DC (moDC) with anti-CD39 antibodies in the presence of ATP.
Briefly, human monocytes were purified from human healthy blood and differentiated into MoDC in presence of GM-CSF and IL-4 during 6 days. […] In some cases, MoDC were preincubated during 1 hours in presence of CD39 inhibitor: […] (Tocris, 250 μM), CD73 inhibitor: APCP (Tocris 50 μM), anti-CD39 blocking antibody I-394 or BY40 (for BY40 see WO2009/095478), or anti-CD73 blocking antibodies. LPS (Invivogen, 10 ng/ml) was used as positive control. To assess resulting effect of ATP-mediated DC activation on CD4 T cells activation, ATP-activated DC were washed and then incubated with allogenic CD4 T cells (ratio 1 MoDC/4 T cells) for a mixed lymphocytes reaction (MLR) during 5 days. T cells activation and proliferation were analyzed through CD25 expression and Cell Trace Violet dilution by flow cytometry (FIG. 8).

On to “I-394: anti-CD39 antibody, VH SEQ ID NO: 6, VL SEQ ID NO: 7; human IgG1 Fc with L234A/L235E/G237A/A330S/P331S”, for which the “blocking CD39 enzymatic activity in CHO-huCD39” value in series [1] is reported as “blocks”. Moreover, the “binding to CD39-L4 in ELISA” value in series [2] is recorded as “not”. The “ATP-induced moDC activation as assessed by HLA-DR or CD83 expression” value in series [3] is listed as “permitted moDC activation”.
